# Experimental data reported in US20060003939.
# Legend:
# [1] = target: 35S-methionine labeled wild type DIAP1, in vitro translated from diap1-pET14b (UniProt Q24306)
# [2] = target: His-DIAP1 21-4S mutant (RING domain mutant), in vitro translated from diap1 21-4S pET14b (UniProt Q24306)
# His-DIAP1 21-4S mutant (RING domain mutant), in vitro translated from diap1 21-4S pET14b, sequence (Q24306 other isoform, or with tags, fused parts or gaps mutant): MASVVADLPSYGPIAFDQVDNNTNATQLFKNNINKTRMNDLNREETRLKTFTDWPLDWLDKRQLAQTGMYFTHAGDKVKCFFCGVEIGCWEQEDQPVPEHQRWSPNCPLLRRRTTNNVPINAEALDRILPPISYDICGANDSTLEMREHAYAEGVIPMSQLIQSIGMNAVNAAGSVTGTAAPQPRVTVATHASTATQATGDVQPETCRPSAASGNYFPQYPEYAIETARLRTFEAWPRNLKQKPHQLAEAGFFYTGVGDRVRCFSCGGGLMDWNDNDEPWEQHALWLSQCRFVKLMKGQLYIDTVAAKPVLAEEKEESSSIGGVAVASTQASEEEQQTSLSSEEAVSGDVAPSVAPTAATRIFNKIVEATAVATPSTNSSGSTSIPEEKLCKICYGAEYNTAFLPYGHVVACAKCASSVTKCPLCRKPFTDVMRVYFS
# 35S-methionine labeled wild type DIAP1, in vitro translated from diap1-pET14b, sequence (Q24306 whole entry, the tested form may be a part): as the sequence (Q24306 other isoform, or with tags, fused parts or gaps mutant) above, with Y406C counted along it
substance,measurement,setting,value
His-UBCD1,in vitro ubiquitination reaction,[1],Wild-type DIAP1 (lane 4) showed marked ubiquitination
same,in vitro ubiquitination reaction,[2],"whereas the His-DIAP1^21-4S mutant (RING domain mutant) did not (lane 7), in the presence of ubcD1"
